The values that follow come from IntAct's records for PubMed 20558380.

Sequences and labels used below:
B1: Vang-like protein 2 (Homo sapiens), Q9ULK5 (parent)
chain: MDTESQYSGYSYKSGHSRSSRKHRDRRDRHRSKSRDGGRGDKSVTIQAPGEPLLDNESTRGDERDDNWGETTTVVTGTSEHSISHDDLTRIAKDMEDSVPLDCSRHLGVAAGATLALLSFLTPLAFLLLPPLLWREELEPCGTACEGLFISVAFKLLILLLGSWALFFRRPKASLPRVFVLRALLMVLVFLLVVSYWLFYGVRILDARERSYQGVVQFAVSLVDALLFVHYLAVVLLELRQLQPQFTLKVVRSTDGASRFYNVGHLSIQRVAVWILEKYYHDFPVYNPALLNLPKSVLAKKVSGFKVYSLGEENSTNNSTGQSRAVIAAAARRRDNSHNEYYYEEAEHERRVRKRRARLVVAVEEAFTHIKRLQEEEQKNPREVMDPREAAQAIFASMARAMQKYLRTTKQQPYHTMESILQHLEFCITHDMTPKAFLERYLAAGPTIQYHKERWLAKQWTLVSEEPVTNGLKDGIVFLLKRQDFSLVVSTKKVPFFKLSEEFVDPKSHKFVMRLQSETSV
partner: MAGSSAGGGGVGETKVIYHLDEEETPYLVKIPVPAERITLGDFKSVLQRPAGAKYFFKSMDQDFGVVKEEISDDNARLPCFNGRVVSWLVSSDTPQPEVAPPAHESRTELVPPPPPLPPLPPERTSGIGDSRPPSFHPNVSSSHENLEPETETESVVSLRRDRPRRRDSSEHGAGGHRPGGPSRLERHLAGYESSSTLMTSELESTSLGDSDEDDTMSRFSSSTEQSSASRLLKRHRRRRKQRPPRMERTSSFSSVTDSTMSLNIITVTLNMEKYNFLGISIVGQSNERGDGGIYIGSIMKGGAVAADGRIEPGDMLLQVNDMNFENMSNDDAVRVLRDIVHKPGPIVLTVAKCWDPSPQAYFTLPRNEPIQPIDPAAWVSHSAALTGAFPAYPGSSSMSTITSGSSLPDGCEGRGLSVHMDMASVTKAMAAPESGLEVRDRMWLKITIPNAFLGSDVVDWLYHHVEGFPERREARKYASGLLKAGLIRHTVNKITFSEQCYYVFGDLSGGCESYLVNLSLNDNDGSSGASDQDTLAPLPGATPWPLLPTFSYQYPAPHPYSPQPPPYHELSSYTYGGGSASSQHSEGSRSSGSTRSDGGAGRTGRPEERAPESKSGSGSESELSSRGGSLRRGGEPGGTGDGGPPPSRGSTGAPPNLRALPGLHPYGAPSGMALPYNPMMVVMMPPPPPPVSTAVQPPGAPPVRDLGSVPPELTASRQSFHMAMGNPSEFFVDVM
B2: Vang-like protein 2 (Homo sapiens), Q9ULK5 (parent)
chain: B1 chain
partner: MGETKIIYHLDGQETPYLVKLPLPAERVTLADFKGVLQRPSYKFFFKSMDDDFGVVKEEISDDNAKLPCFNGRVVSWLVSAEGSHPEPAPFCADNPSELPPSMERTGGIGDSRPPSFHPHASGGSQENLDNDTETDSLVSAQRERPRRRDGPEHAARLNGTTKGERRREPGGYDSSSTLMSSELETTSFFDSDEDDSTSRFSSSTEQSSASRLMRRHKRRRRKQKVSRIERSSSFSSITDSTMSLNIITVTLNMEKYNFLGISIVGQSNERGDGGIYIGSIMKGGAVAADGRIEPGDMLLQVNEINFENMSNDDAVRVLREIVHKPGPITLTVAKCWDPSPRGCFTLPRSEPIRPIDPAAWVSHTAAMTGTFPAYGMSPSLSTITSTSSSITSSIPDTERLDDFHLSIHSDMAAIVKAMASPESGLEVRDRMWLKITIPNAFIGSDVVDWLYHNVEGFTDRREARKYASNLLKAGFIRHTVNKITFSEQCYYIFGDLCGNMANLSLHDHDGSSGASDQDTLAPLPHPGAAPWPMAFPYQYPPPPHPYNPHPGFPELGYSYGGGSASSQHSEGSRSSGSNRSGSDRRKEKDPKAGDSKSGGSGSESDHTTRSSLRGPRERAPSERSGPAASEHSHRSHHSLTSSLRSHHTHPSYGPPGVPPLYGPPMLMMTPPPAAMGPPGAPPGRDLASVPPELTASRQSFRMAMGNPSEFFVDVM

The first assay covers variants of B1. Particulars: with dvl2_mouse Dvl2, Q60838.
On to MDTESQYSGYSYKSGHSRSSRKHRDRRDRHRSKSRDGGRGDKSVTIQAPGEPLLDNESTRGDERDDNWGETTTVVTGTSEHSISHDDLTRIAKDMEDSVPLDCSRHLGVAAGATLALLSFLTPLAFLLLPPLLWREELEPCGTACEGLFISVAFKLLILLLGSWALFFRRPKASLPRVFVLRALLMVLVFLLVVSYWLFYGVRILDARERSYQGVVQFAVSLVDALLFVHYLAVVLLELRQLQPQFTLKVVRSTDGASRFYNVGHLSIQRVAVWILEKYYHDFPVYNPALLNLPKSVLAKKVSGFKVYSLGEENSTNNSTGQSRAVIAAAARRRDNSHNEYYYEEAEHERRVRKRRARLVVAVEEAFTHIKRLQEEEQKNPREVMDPREAAQAIFASMARAMQKYLRTTKQQPYHTMESILQHLEFCITHDMTPKASLERYLAAGPTIQYHKERWLAKQWTLVSEEPVTNGLKDGIVFLLKRQDFSLVVSTKKVPFFKLSEEFVDPKSHKFVMRLQSETSV [F437S], for which the “effect of a mutation on the interaction” value is on record as “disrupting interaction”.

Consider MDTESQYSGYSYKSGHSRSSRKHRDRRDRHRSKSRDGGRGDKSVTIQAPGEPLLDNESTRGDERDDNWGETTTVVTGTSEHSISHDDLTRIAKDMEDSVPLDCSRHLGVAAGATLALLSFLTPLAFLLLPPLLWREELEPCGTACEGLFISVAFKLLILLLGSWALFFRRPKASLPRVFVLRALLMVLVFLLVVSYWLFYGVRILDARERSYQGVVQFAVSLVDALLFVHYLAVVLLELRQLQPQFTLKVVRSTDGASRFYNVGHLSIQRVAVWILEKYYHDFPVYNPALLNLPKSVLAKKVSGFKVYSLGEENSTNNSTGQSRAVIAAAARRRDNSHNEYYYEEAEHERRVRKRRARLVVAVEEAFTHIKRLQEEEQKNPREVMDPREAAQAIFASMARAMQKYLRTTKQQPYHTMESILQHLEFCITHDMTPKAFLERYLAAGPTIQYHKERWLAKQWTLVNEEPVTNGLKDGIVFLLKRQDFSLVVSTKKVPFFKLSEEFVDPKSHKFVMRLQSETSV [S464N], for which the “effect of a mutation on the interaction” value is on record as “disrupting interaction”.

A further assay covers variants of B2. The note with it: with dvl3_mouse Dvl3, Q61062.
Regarding MDTESQYSGYSYKSGHSRSSRKHRDRRDRHRSKSRDGGRGDKSVTIQAPGEPLLDNESTRGDERDDNWGETTTVVTGTSEHSISHDDLTRIAKDMEDSVPLDCSRHLGVAAGATLALLSFLTPLAFLLLPPLLWREELEPCGTACEGLFISVAFKLLILLLGSWALFFRRPKASLPRVFVLRALLMVLVFLLVVSYWLFYGVRILDARERSYQGVVQFAVSLVDALLFVHYLAVVLLELRQLQPQFTLKVVRSTDGASRFYNVGHLSIQRVAVWILEKYYHDFPVYNPALLNLPKSVLAKKVSGFKVYSLGEENSTNNSTGQSRAVIAAAARRRDNSHNEYYYEEAEHERRVCKRRARLVVAVEEAFTHIKRLQEEEQKNPREVMDPREAAQAIFASMARAMQKYLRTTKQQPYHTMESILQHLEFCITHDMTPKAFLERYLAAGPTIQYHKERWLAKQWTLVSEEPVTNGLKDGIVFLLKRQDFSLVVSTKKVPFFKLSEEFVDPKSHKFVMRLQSETSV [R353C], the “effect of a mutation on the interaction” value was “decreasing interaction”. MDTESQYSGYSYKSGHSRSSRKHRDRRDRHRSKSRDGGRGDKSVTIQAPGEPLLDNESTRGDERDDNWGETTTVVTGTSEHSISHDDLTRIAKDMEDSVPLDCSRHLGVAAGATLALLSFLTPLAFLLLPPLLWREELEPCGTACEGLFISVAFKLLILLLGSWALFFRRPKASLPRVFVLRALLMVLVFLLVVSYWLFYGVRILDARERSYQGVVQFAVSLVDALLFVHYLAVVLLELRQLQPQFTLKVVRSTDGASRFYNVGHLSIQRVAVWILEKYYHDFPVYNPALLNLPKSVLAKKVSGFKVYSLGEENSTNNSTGQSRAVIAAAARRRDNSHNEYYYEEAEHERRVRKRRARLVVAVEEAFTHIKRLQEEEQKNPREVMDPREAAQAIFASMARAMQKYLRTTKQQPYHTMESILQHLEFCITHDMTPKASLERYLAAGPTIQYHKERWLAKQWTLVSEEPVTNGLKDGIVFLLKRQDFSLVVSTKKVPFFKLSEEFVDPKSHKFVMRLQSETSV [F437S]: the “effect of a mutation on the interaction” value is “disrupting interaction”. Still for that read-out and setting: in the case of MDTESQYSGYSYKSGHSRSSRKHRDRRDRHRSKSRDGGRGDKSVTIQAPGEPLLDNESTRGDERDDNWGETTTVVTGTSEHSISHDDLTRIAKDMEDSVPLDCSRHLGVAAGATLALLSFLTPLAFLLLPPLLWREELEPCGTACEGLFISVAFKLLILLLGSWALFFRRPKASLPRVFVLRALLMVLVFLLVVSYWLFYGVRILDARERSYQGVVQFAVSLVDALLFVHYLAVVLLELRQLQPQFTLKVVRSTEGASRFYNVGHLSIQRVAVWILEKYYHDFPVYNPALLNLPKSVLAKKVSGFKVYSLGEENSTNNSTGQSRAVIAAAARRRDNSHNEYYYEEAEHERRVRKRRARLVVAVEEAFTHIKRLQEEEQKNPREVMDPREAAQAIFASMARAMQKYLRTTKQQPYHTMESILQHLEFCITHDMTPKAFLERYLAAGPTIQYHKERWLAKQWTLVSEEPVTNGLKDGIVFLLKRQDFSLVVSTKKVPFFKLSEEFVDPKSHKFVMRLQSETSV [D255E] it was “disrupting interaction”; in that of MDTESQYSGYSYKSGHSRSSRKHRDRRDRHRSKSRDGGRGDKSVTIQAPGEPLLDNESTRGDERDDNWGETTTVVTGTSEHSISHDDLTRIAKDMEDSVPLDCSRHLGVAAGATLALLSFLTPLAFLLLPPLLWREELEPCGTACEGLFISVAFKLLILLLGSWALFFRRPKASLPRVFVLRALLMVLVFLLVVSYWLFYGVRILDARERSYQGVVQFAVSLVDALLFVHYLAVVLLELRQLQPQFTLKVVRSTDGASRFYNVGHLSIQRVAVWILEKYYHDFPVYNPALLNLPKSVLAKKVSGFKVYSLGEENSTNNSTGQSRAVIAAAARRRDNSHNEYYYEEAEHERRVRKRRARLVVAVEEAFTHIKRLQEEEQKNPREVMDPREAAQAIFASMARAMQKYLRTTKQQPYHTMESILQHLEFCITHDMTPKAFLERYLAAGPTIQYHKERWLAKQWTLVNEEPVTNGLKDGIVFLLKRQDFSLVVSTKKVPFFKLSEEFVDPKSHKFVMRLQSETSV [S464N], “disrupting interaction”.
